Data on one molecule can be found in patent US20200317753A1 (LIFEARC, published 2020).

The target in experiment [1] is T1, SP70 peptide epitope of the EV71 VP1 capsid protein (Enterovirus 71).
T1 construct: 15-amino acid peptide; residues 208-222 counted on VP1
T1 peptide: YPTFGEHKQEKDLEY
Kind of experiment: isothermal titration calorimetry.

The target of experiment [2] is T1, SP70 peptide epitope of the EV71 VP1 …. Nature of the experiment: isothermal titration calorimetry, observed KD. (In ITC the heat of successive injections is recorded.)
Excerpt: (§1) KD can be calculated using Gibbs free energy, enthalpy and entropy: ΔG=ΔH−TΔS and ΔG=RT In KD.
For experiment [3] the target is unchanged. Nature of the experiment: binding ELISA on SP70 peptide, OD 650 nm.
Description: Serial dilutions of antibody variants (starting from ˜100 −g/ml) were added to immobilised EV71-VLP or the SP70 peptide epitope, shaken for one hour at room temperature and washed with PBS-T. Anti-human kappa chain HRP was added and the incubation and washing steps were repeated. TMB/K-Blue substrate was incubated with the reaction for 5-10 minutes at room temperature before the reaction was stopped with H₂SO₄ RED STOP. The optical density was read at 450/650 nm.
The target is the same in experiment [4]. Nature of the experiment: binding ELISA on SP70 peptide, antibody not incubated, OD 650 nm [top panel]. For orientation: ELISA stands for enzyme-linked immunosorbent assay.
The target is the same in experiment [5]. Kind of experiment: isothermal titration calorimetry, observed KA.
Excerpt: as §1

B1: hEV71 HMKA (antibody, V domains shown)
VH: QVQLVQSGAEVKKPGASVKVSCTASGFNIKDTYIHWVRQAPGQRLEWIGKIDPANGNTKYDPKFQDKATITADTSANTAYMELSSLRSEDTAVYYCANSNYWFDFDYWGQGTLVTVSS
VL: DIVMTQSPLSLPVTPGEPASISCRSSQSIVHSNGNTYLEWYLQKPGQSPQLLIYKVSNRFSGVPDRFSGSGSGTDFTLKISRVEAEDVGVYYCYQGSHVPYTFGGGTKVEIK
notes: Variable domains only; pHuG1 / pHuK vectors, Expi293 cells; behaves as an IgG monomer; also called huEV71 HMKA; EVM00
For the molecule B1, in experiment [1], the ΔH was -16.5 kcal/mol and the ΔS was -21.4 cal/mol/deg. Further, the Kd (in general, a measure of binding affinity in units of concentration) in experiment [2] was 38.2 nM. Besides, the EC50 – broadly, the midpoint of the concentration-response curve – in experiment [3] was 1.15 nM. Further, the EC50 (read off the curve) (in general, the concentration that produces a half-maximal response) in experiment [4] was ~0.8 nM. Besides, the Ka in experiment [5] was 2.62e+07 M⁻¹.
